22 molecules from patent US20220282217A1 (BIONTECH US, published 2022) can be followed below.

The target in one assay is HLA-B*40:02 (human). The experiment in a line: peptides eluted from HLA-peptide complexes by acid wash, targeted MS/MS (PRM); 293T cells transduced with GATA3 neoORF, expressing HLA-B*40:02. The protocol:
(§1) Between 50 and 700 million of the transduced cells expressing peptides encoded by the GATA3 neoORF sequence were cultured and peptides were eluted from HLA-peptide complexes using an acid wash. Eluted peptides were then analyzed by targeted MS/MS using PRM.

The target in assay [1] is T1, HLA class I molecule A03.01.
T1 construct: Purified MHC class I complex; also called HLA-A03:01
As to the kind of experiment: pMHC-I dissociation assay with 125I-labeled beta2m light chain at 37 C, scintillation counts; time in hours for half of the complexes to dissociate. The protocol:
(§2) Briefly, synthetic genes encoding biotinylated MHC-I heavy and light chains are expressed in E. coli and purified from inclusion bodies using standard methods. […] These reactions are carried out in streptavidin coated microplates to bind the biotinylated MHC-I heavy chains to the surface and allow measurement of radiolabeled light chain to monitor complex formation. Dissociation is initiated by addition of higher concentrations of unlabeled light-chain and incubation at 37° C. Stability is defined as the length of time in hours it takes for half of the complexes to dissociate, as measured by scintillation counts.

Assay [2] has the same target. The experiment in a line: competition with radiolabeled reference peptide on purified MHC I. The protocol: (§3) Peptides were incubated at varying concentrations with these complexes for 2 days, and the amount of remaining radiolabeled peptide bound to […] was measured using size exclusion gel-filtration.
Assay [3] addresses T2, HLA-A11.01 (human).
T2 construct: Purified class I MHC
The experiment in a line: pMHC-I dissociation assay with 125I-labeled beta2m light chain at 37 C, scintillation counts; time in hours for half of the complexes to dissociate. The protocol: as §2

For assay [4], the target named is T2, HLA-A11.01. The experiment in a line: competition binding assay with purified class I MHC: test peptide at varying concentrations displaces a radiolabeled reference peptide, read by size exclusion gel filtration; column 'Observed MHC Affinity (nM)'. The protocol: as §3
(In gel filtration, larger molecules generally elute earlier.)

The target of assay [5] is T3, HLA class I molecule A02.01.
T3 construct: Purified MHC class I complex; also called HLA-A02:01
The assay is described as above. The protocol:
as §3

Assay [6] shares this target. The experiment in a line: pMHC-I dissociation half-life, 125I-b2m. Summed up: (§4)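 Biotinylated MHC-I heavy chain made in E. coli, captured on streptavidin plates and complexed with peptide and radiolabelled light chain. Dissociation started with excess unlabelled light chain at 37 °C. Stability is the half-life in hours from scintillation counts.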
The target of assay [7] is HLA-A11:01 class I MHC molecule (human). As to the kind of experiment: competition with a radiolabeled reference peptide for purified MHC I, gel filtration; 'Affinity (nM)'; affinity assay, column 'Affinity (nM)'. The protocol: as §3
In assay [8] the target is HLA-A03:01 class I MHC molecule (human). The experiment in a line: competition with a radiolabeled reference peptide for purified MHC I, gel filtration; 'Affinity (nM)'. The protocol:
as §3

For assay [9] the target is unchanged. As to the kind of experiment: pMHC-I dissociation at 37 C, 125I-labeled b2m, scintillation counts. The protocol:
as §2

Assay [10] addresses T4, HLA-A01:01 class I MHC molecule (human).
T4 construct: heavy chain biotinylated and made in E. coli in the stability assay
Described as above. The protocol: as §2

For assay [11], the target named is T3, HLA class I molecule A02.01. The experiment in a line: competition with radiolabeled reference peptide on purified MHC I. The protocol: as §3
In assay [12] the target is T5, HLA class I molecule A24.02.
T5 construct: Purified MHC class I complex; also called HLA-A24:02
The assay is described as above. The protocol:
as §3

Assay [13] deals with T6, HLA class I molecule B08.01.
T6 construct: Purified MHC class I complex; also called HLA-B08:01
As to the kind of experiment: pMHC-I dissociation half-life, 125I-b2m. Summed up:
as §4

Assay [14] concerns the target T7, HLA class I molecule B07.02.
T7 construct: Purified MHC class I complex; also called HLA-B07:02
As to the kind of experiment: pMHC-I dissociation half-life, 125I-b2m. The procedure, abridged:
as §4

For assay [15], the target named is T5, HLA class I molecule A24.02. As to the kind of experiment: pMHC-I dissociation half-life, 125I-b2m. Summed up:
as §4

Assay [16] concerns the target T8, HLA-B07.02 (human).
T8 construct: Purified class I MHC
The experiment in a line: competition with radiolabeled reference peptide, purified MHC I. The protocol: as §3

Assay [17] concerns the target T9, HLA-B08.01 (human).
T9 construct: Purified class I MHC
The description is as above. The protocol:
as §3

For assay [18], the target named is T10, HLA-A03.01 (human).
T10 construct: Purified class I MHC
The assay is described as above. The protocol: as §3

The target in assay [19] is T8, HLA-B07.02. As to the kind of experiment: pMHC-I dissociation half-life, 125I-b2m. The procedure, abridged:
as §4

Assay [20] concerns the target T9, HLA-B08.01. The experiment in a line: pMHC-I dissociation half-life, 125I-b2m. The procedure, abridged:
as §4

In assay [21] the target is T10, HLA-A03.01. As to the kind of experiment: pMHC-I dissociation half-life, 125I-b2m. Summed up:
as §4

Assay [22] concerns the target T11, HLA-A02.01 (human).
T11 construct: Purified class I MHC
The experiment in a line: pMHC-I dissociation half-life, 125I-b2m. Summed up: as §4

Assay [23] deals with T3, HLA class I molecule A02.01. As to the kind of experiment: pMHC-I dissociation assay with 125I-labeled beta2m light chain at 37 C, scintillation counts; time in hours for half of the complexes to dissociate. The protocol: as §2
Assay [24] has as its target HLA-A02.01 (human). The experiment in a line: competition vs radiolabeled reference peptide on purified MHC I, gel filtration. The protocol:
as §3

For assay [25], the target named is T12, HLA-A03.01 (human).
T12 construct: As for HLA-A02.01
The description is as above. The protocol:
as §3

For assay [26], the target named is HLA-A02.01 (human). As to the kind of experiment: pMHC-I complex dissociation at 37 C, 125I-b2m, half-life. Summed up:
as §4

In assay [27] the target is T12, HLA-A03.01. The description is as above. Summed up: as §4
For assay [28], the target named is T13, HLA-B07.02 (human).
T13 construct: As for HLA-A02.01
The experiment in a line: competition vs radiolabeled reference peptide on purified MHC I, gel filtration. The protocol: as §3

For assay [29], the target named is T13, HLA-B07.02. As to the kind of experiment: pMHC-I complex dissociation at 37 C, 125I-b2m, half-life. The procedure, abridged: as §4
For the next assay, the target named is HLA-A*30:02 (human). As to the kind of experiment: peptides eluted from HLA-peptide complexes by acid wash, targeted MS/MS (PRM); 293T cells transduced with GATA3 neoORF, expressing HLA-A*30:02. The protocol: as §1
The target in assay [30] is T7, HLA class I molecule B07.02. The experiment in a line: competition with radiolabeled reference peptide on purified MHC I. The protocol: as §3
Assay [31] addresses T11, HLA-A02.01. The experiment in a line: competition with radiolabeled reference peptide, purified MHC I. The protocol:
as §3

For assay [32], the target named is T14, HLA-A24.02 (human).
T14 construct: Purified class I MHC
Described as above. The protocol:
as §3

Assay [33] addresses T14, HLA-A24.02. As to the kind of experiment: pMHC-I dissociation half-life, 125I-b2m. The procedure, abridged:
as §4

Another assay addresses T15, HLA-A01.01 (human).
T15 construct: Purified class I MHC
The experiment in a line: competition with radiolabeled reference peptide, purified MHC I. The protocol: as §3

Assay [34] addresses T6, HLA class I molecule B08.01. As to the kind of experiment: competition with radiolabeled reference peptide on purified MHC I. The protocol: as §3
Assay [35] addresses HLA-B08:01 class I MHC molecule (human). As to the kind of experiment: pMHC-I dissociation at 37 C, 125I-labeled b2m, scintillation counts. The protocol:
as §2

For assay [36], the target named is T1, HLA class I molecule A03.01. As to the kind of experiment: pMHC-I dissociation half-life, 125I-b2m. Summed up:
as §4

For the molecule AESKIMFAT [GATA3 neoORF peptide AESKIMFAT], in the assay with HLA-B*40:02, the binding result is on record as “binds”.
A word on the IC50: it is the concentration that inhibits the measured activity by half. High values mean lower potency, low ones higher potency. As to YMFLKAESK (also called GATA3 . . ; CSNH), the “Observed MHC Stability” value in assay [1] turned out to be 0.3 h. Also, the half-maximal inhibitory concentration (IC50) in [2] was determined as 79.8 nM.
Regarding KIMFATLQR (also called GATA3 . . ; CSNH), the figures for the “Observed MHC Stability” value (in assay [1]; in the assay with HLA-A11.01 [3]) were 5.6 h and 8.9 h, respectively. Moreover, the IC50 in the assay with HLA-A11.01 [4] turned out to be 23 nM; in assay [2], 2.5 nM.
In turn, SMLTGPPARV (also called GATA3 . . ; CSNH) returned a half-maximal inhibitory concentration (IC50) in assay [5] of 14 nM. Further, the “Stability (T1/2 (h))” value in assay [6] was 21.7 h.
In the case of MANGSLLNY [BTK, C481S peptide MANGSLLNY], the IC50 in assay [7] stood at 536 nM; in assay [8], 35.6 nM. In addition, the “Stability (half-life (hr.))” value in [9] was found to be 14.3 min; in assay [10] it was 13 min.
On to FQMQPLSLM (also called JAK1(-1)), for which the IC50 in [11] came to 553 nM; in assay [12], 14600 nM. For the same molecule, the “Stability (T1/2 (h))” value in [13] is 0 h; in assay [14], 0 h; in assay [6], 0.3 h; in [15], 0 h.
In the case of KLMLLRLNL (also called SEC31A(-1)), the results for the 50% inhibitory concentration (IC50) with HLA-B07.02 [16], with HLA-B08.01 [17] and in the assay with HLA-A03.01 [18] were 133 nM, 58.4 nM and 210 nM, respectively. For the same molecule, the “Stability (T1/2 (h))” value is 1.5 h with HLA-B07.02 [19], 0 h with HLA-B08.01 [20], 0 h with HLA-A03.01 [21] and 16.9 h in the assay with HLA-A02.01 [22].
For the molecule MLTGPPARV (also called GATA3 . . ; CSNH), in assay [23], the “Observed MHC Stability” value worked out at 5.8 h. The half-inhibitory concentration (IC50) in assay [11] is 10.6 nM.
For KLFSCLSFL (also called C15ORF40(+1)), the results for the half-inhibitory concentration (IC50) with HLA-A02.01 [24] and in the assay with HLA-A03.01 [25] were 6 nM and 308 nM, respectively. The “Stability (T1/2 (h))” value is 14.3 h with HLA-A02.01 [26] and 0.8 h with HLA-A03.01 [27].

B1: KLSDSRTAL (peptide)
peptide: KLSDSRTAL
notes: also called FRG1B, I1OT (so in the source); FRG1B, I10T
B1 yielded a half-inhibitory concentration (IC50) with HLA-B07.02 [28] of 9 nM. For the same molecule, the results for the “Stability (T1/2 (h))” value with HLA-A02.01 [26] and with HLA-B07.02 [29] were 2.8 h and 6.8 h, respectively.
For TLQRSSLWCL (also called GATA3 . . ; CSNH), in assay [23], the “Observed MHC Stability” value was 0.5 h. The molecule further registered an IC50 in assay [11] of 118 nM.
On to IMKPKRDGY [GATA3 neoORF peptide IMKPKRDGY], for which the binding result in the assay with HLA-A*30:02 is recorded as “binds”.
Turning to ALSASNSCF (also called FRG1B, L52S), the values for the IC50 in [30], in [11] and in [12] were 684 nM, 728 nM and 16300 nM, respectively. Further, the figures for the “Stability (T1/2 (h))” value in assay [14], in [6] and in [15] were 0 h, 0.3 h and 0.2 h, respectively.
Consider MNWRPILTII (also called TP53, R248W), for which the IC50 in the assay with HLA-A02.01 [31] is 1030 nM; with HLA-A24.02 [32] it was 44900 nM. The “Stability (T1/2 (h))” value in the assay with HLA-A02.01 [22] stood at 0.4 h; in the assay with HLA-A24.02 [33] it was 0 h.
In the assay with HLA-A01.01, MSDTTYKIY (also called TTK(-1)) registered a half-maximal inhibitory concentration (IC50) of 10.2 nM.
As for YQQQQQSDL (also called MYC, E39D), the IC50 was determined as 18900 nM in assay [34] and 799 nM in assay [11]. Besides, the “Stability (T1/2 (h))” value in [13] came out at 0 h; in [6], 0.4 h.
For the molecule MANGSLLNYL [BTK_C481S peptide MANGSLLNYL], the “Stability (half-life (hr.))” value in assay [35] was found to be 0 h.
In assay [2], KVSRENTSPK (also called HER2, L7555) came in with a half-inhibitory concentration (IC50) of 7 nM. In addition, the “Stability (T1/2 (h))” value in assay [36] was determined as 13.5 h.
In the case of KLRSPLWIF (also called SMAP1(-1)), the half-maximal inhibitory concentration (IC50) in the assay with HLA-A24.02 [32] is 828 nM.
In the case of VMSDTTYKIY (also called TTK(-1)), the IC50 in the assay with HLA-A01.01 turned out to be 376 nM.
Take SIMKPKRDGY [GATA3 neoORF peptide SIMKPKRDGY]: in the assay with HLA-A*30:02, the binding result was “binds”.
In the case of AESKIMFATL [GATA3 neoORF peptide AESKIMFATL], the binding result in the assay with HLA-B*40:02 is “binds”.
